Test results published in the nanobody polyreactivity screen of Harvey et al. (2022).

Experiment: yeast display, Sf9 membrane polyspecificity reagent, FACS + sequencing; frameworks hold sequencing errors
In short: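 Synthetic nanobody libraries on Saccharomyces cerevisiae BJ5465 were galactose-induced for 36–48 hours, stained 1 hour at 4 °C with 10% biotinylated, detergent-solubilized Sf9 membrane reagent and enriched on streptavidin microbeads. FACS then separated cells into low and high (top ~1%) gates by anti-HA (expression) and streptavidin (reagent binding) fluorescence. Genes were colony-PCR amplified, MiSeq 2 × 250 sequenced and CDR-length filtered. A clone's polyreactivity label is that of its gate of origin.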

Row | Sequence | polyreactivity (PSR sort gate)
1 | QVQLVESGGGLVQAGGSLRLSCAASGFTFGRNAMGWYRQAHGKERELVASIDWSGGSTYYADSVKGRFTISRDNAKNTFYLQMNTLKPEDTAVYYCAVGPNSVGNRSYGFDYWGQGTQVTLSS | low polyreactivity
2 | QVQLVESGGGLVQAGGSLRLSCAASGFTFGRYAMGWYRPAPGKERELVAAISRSGGRTYYADTVKGRFTISRDNAKNTVYLQMNSLKPEHTAVYYCAAYGGVEDDYWGQGTQVTVSS | low polyreactivity
3 | QVQLVESGGGLVQAGGSLRLSCAASGFTFGRYAMGWYRQAPGKERELVAAITSRGGSTYYADSVKGRFTISRDNAKNTVYLQMNSLKPEDTAVYYCNRDLVDSYGYWGQGTQVTVSS | high polyreactivity
4 | QVQLVESGGGLVQAGGSLRLSCAASGFTFGSNTMGWYRQAPGKERELVAAITTSGDSTYYADSVKGRFTISRDNAKNTVYLQMNCLKPEDTAVYYCAAERRYGRYYRLVRLLGQGTQVTVSS | high polyreactivity
5 | QVQLVESGGGLVQAGGSLRLSCAASGFTFGSYVMGWYRQAPGKERELVADISIRGGSTYYADSVKGRFTISRDNAKNTVYLQMHSLKPEDTAVYDCNADPAFYYWEGIVGGADYDYWGQGTQVTVSS | low polyreactivity
6 | QVQLVESGGGLVQAGGSLRLSCAASGFTFGTYTMGWYRQAPGKERELVAAISGSGGSTYYADSVKGRFTISRDNAKNTDYLQMNSLKPEDTAVYYCAAVGRSKRDGYWGQGTQVTVST | high polyreactivity
7 | QVQLVESGGGLVQAGGSLRLSCAASGFTFGWYAMGWYRPAPGKERELVAAISRSGGSTYYADSVKGRFTISRDTAKNTVYLQMNSLKPEDTAVYYCAATYPQGKYTYGRSYDYWGQGTQVTVSS | high polyreactivity
8 | QVQLVESGGGLVQAGGSLRLSCAASGFTFGWYAMGWYRQAPGKEREFVAAISQTGGSTYYADSVKGRFTISRDNAKNTVYLQMNSLKPEDTAVYYCAAPGKRRGVYYWGQGTQVTVSS | high polyreactivity
9 | QVQLVESGGGLVQAGGSLRLSCAASGFTFGWYAMGWYRQAPGKERELVAAIRSDGSTYYADSVKGRFTISRDNAKNTVYLQMNSLKPEDTAVDYCAAVYYQRGWEFDYWGQGTQVTVSS | low polyreactivity
10 | QVQLVESGGGLVQAGGSLRLSCAASGFTFGWYAMGWYRQAPGKERELVADITYNDASTYYADSVKGRFTISRDNAKNTVYLQMNSLKPEDTAVYYCNAVHRRYLVTHPYDYWGQGTQVTVSS | low polyreactivity
11 | QVQLVESGGGLVQAGGSLRLSCAASGFTFGYNAMGRYRQAPGKERELVAAITSGGSTNYADSVKGRFTISRDNAKNTVYLQMNSLKPEDNAVYYCATGVRPWRKKPVEFYHWGQGTQVTVSS | low polyreactivity
12 | QVQLVESGGGLVQAGGSLRLSCAASGFTFGYNDMGWYRQAPGKERELVAGIRSGDDTNYADSVKGRFTISRDNAKNTVYLQMYSLKPEDTAVYYCAADRTTYTYYLPYDYWGQGTQVTVSS | low polyreactivity
13 | QVQLVESGGGLVQAGGSLRLSCAASGFTFGYYAMGWSRQAPGKESELLATITSSGASTYADSVKGRFTISRDNAKNTVYLQMNSLKPEDTAVYYCAADRLPSYWSWYGYDYWGQGTQVTVSS | high polyreactivity
14 | QVQLVESGGGLVQAGGSLRLSCAASGFTFGYYAMGWYRPAPGKERELVAGISSSGSRTYYADSVKGRFTISRDNAKNTVYLQMNSLKPEDTAVYYCNKYYSGKSYTGEDYWGQGTQVTVSS | high polyreactivity
15 | QVQLVESGGGLVQAGGSLRLSCAASGFTFGYYAMGWYRQAPGKERELVAAISASGASTYYADSVKGRFTISRDNAKNTVYLQMNSLKPEDTAVYYCAARPGQLTSPVTRTRYNYWGQGTQVTVSS | low polyreactivity
16 | QVQLVESGGGLVQAGGSLRLSCAASGFTFGYYAMGWYRQAPGKERELVAAITWSGGRTYYADSVKGRFTISRDNAKNTVYLQMNSLKPEDTAVYYGAVETLWQGSEYWGQGTQVTVSS | low polyreactivity
17 | QVQLVESGGGLVQAGGSLRLSCAASGFTFGYYAMGWYRQAPGKERELVAAITYDGDITYYADSVKGRFTISRDNAKNTVYLQMNSLKPEDTAVYYCAADTVYRSYYWGQGTQVTVSS | low polyreactivity
18 | QVQLVESGGGLVQAGGSLRLSCAASGFTFGYYAMGWYRQAPGKERELVAGITTDGSTNYADSVKGRFTISRDNAKNTVYLQMNSLKPEDTAVYYCAADDLHWLNSKRYRGRDYWGQGTQVTVSS | low polyreactivity
19 | QVQLVESGGGLVQAGGSLRLSCAASGFTFGYYAMGWYRQAPGKERELVATIDRGGGTSYADSVKGRFTISRDNAKNTVYLQMNSLKPEDTAVYYCAAVRQGYVAYYYWGQGTQVTVSS | high polyreactivity
20 | QVQLVESGGGLVQAGGSLRLSCAASGFTFGYYAMGWYRQARGKERELVAAISSRGSGTYYADSVKGRFTISRDNAKNTVYLQMNSLKPEDTAVYYCARPAALLGYWGQGTQVTVSS | low polyreactivity
21 | QVQLVESGGGLVQAGGSLRLSCAASGFTFHKNAMGWYRQAPGKERELVAAISRSGGRTYYADSVKGRFTISRDNAKNTVYLQMNSLKPEDTAVYYCNATPLLWAGYDYWGQGTQVTVSS | high polyreactivity
22 | QVQLVESGGGLVQAGGSLRLSCAASGFTFHVNTMGWYRQAPGKERELVAAISRSGGSTYYADSVKGRFTISRDNAKNTVYLQMNSLKPEDTAVYYCATPSPGYTYDPRTQEENDYWGQGTQVTVSS | low polyreactivity

Row | Sequence | polyreactivity (PSR sort gate)
23 | QVQLVESGGGLVQAGGSLRLSCAASGFTFHWYAMGWYRQAPGKERELVAAISWSGGSTYYADSVKGRFTISRDNAKNTVYLQMNSLKPEYTAVYYCNAGVYWPGEFDYWGQGTQVTVSS | high polyreactivity
24 | QVQLVESGGGLVQAGGSLRLSCAASGFTFHWYAMGWYRQAPGKERELVAAITDTGGSTYYADSVKGRFTISRDNAKNTVYLQMNSLKPEDTAVYYCATRHSKYGYEYDYWGQGTQVTVSS | low polyreactivity
25 | QVQLVESGGGLVQAGGSLRLSCAASGFTFHYYTMGWYRQAPGKDRELVATIRWSAGSTYYADSVKGRFTISRDNAKNTVYLQMNSLKPEDTAVYYCAVRSLRVDKYGYWGQGTQVTVSS | high polyreactivity
26 | QVQLVESGGGLVQAGGSLRLSCAASGFTFIAYAKGWYRQAPGKERELVAAISRRGGSTYYADSVKGRFTISRDNAKNTVYLQMNSLKPEDTAVYYCAKESRKKTDYDYWGQGTQVTVSS | high polyreactivity
27 | QVQLVESGGGLVQAGGSLRLSCAASGFTFIGYAMGWYRQAPGKERELVAAITWRGGRTYYADSVKGRFTISRDNAKNTVYLQMNSLKPEDTAVYYCAADGYTVVNSYYWGQGTQVTVSS | high polyreactivity
28 | QVQLVESGGGLVQAGGSLRLSCAASGFTFIKYAMGWYRQAPGKEREFVAAITRSGTSTYYADSVKGRFTISRDNAKNTVYLQMNSLKPEDTAVYYCAARYVYNSDRVSERDYWGQGTQVTVSS | high polyreactivity
29 | QVQLVESGGGLVQAGGSLRLSCAASGFTFIKYAMGWYRQAPGKEREFVPTISWNGGNTYYADSVKGRFTISRYNAKNTVYLQMNSLKPEDTAVYYCAARVKYRTRGGTVVSYDYWGQGTQVTVSS | high polyreactivity
30 | QVQLVESGGGLVQAGGSLRLSCAASGFTFILYTMGWYRQAPGKERELVAAITWRGGNTYYADSVKGRFTISRDNAKNTVYLQMNSLKPEDSAVYYCAAETYYASWEMDYWGQGTQVTVSS | high polyreactivity
31 | QVQLVESGGGLVQAGGSLRLSCAASGFTFIRYAMGWYRQAPGKERELVAAIRGTGTSTYYADSVKGRFTISRDNAKNTVYLQMNSLKPEDTAVYYCNKVSGRSPYTRYDYWGQGTQVTVSS | low polyreactivity
32 | QVQLVESGGGLVQAGGSLRLSCAASGFTFISNAMGWYRQAPGKERELVAAISSSGGRTYYADSVKGRFTISRDNAKNTVYLQMNSLKPEDTAVYYCNADRSLLYSRKIEYDYWGQGTQVSVSS | low polyreactivity
33 | QVQLVESGGGLVQAGGSLRLSCAASGFTFKFYAMGWYRQAPGKERELVAAISGSGDSTYADSVKGRFTISRDNAKNTVYLQINSLKPEDTAVYYFNGRYAGVPWWGYYSRFDYWGQVTQVTVSS | low polyreactivity
34 | QVQLVESGGGLVQAGGSLRLSCAASGFTFKKYAMGWYRQAPGKERELVAAISSSGGRTTYADSVKGRFTISRDNAKNTVYLQMNSLKPEDTAVYYCNADRYTAVRAYDYWGQGTQVTVSS | low polyreactivity
35 | QVQLVESGGGLVQAGGSLRLSCAASGFTFKRYAMGWYRQAPGKERELVAAITGSGGSTYYADSVKGRFTISRDNAKNTVYLQMNSLKPEDTAVYYCAKKRIYWSGRPTIGTYIMGYWGQGTQVTVSS | high polyreactivity
36 | QVQLVESGGGLVQAGGSLRLSCAASGFTFKSYAMGWYRQAPGKEREFVASISRRGGSTYYADSVKGRFTISRDNAKNTVYLQMNSLKPEDTAVYYCATDRPNWVFVDYNYWGQGTQVTVSS | high polyreactivity
37 | QVQLVESGGGLVQAGGSLRLSCAASGFTFKTNAMGWYRQAPGKERELVAAITSGGSTNYADSVKGRFTISRDNAKNTVYLQMNSLKPVDPAVYYCAADYGVWSEYAGWHAAFDYWGQGTQVTVSS | low polyreactivity
38 | QVQLVESGGGLVQAGGSLRLSCAASGFTFKWSAMGWYRPAPGKETELVATITIGGRTNYADSVKGRFTISRDNAKYTVYLQMNSLKPEDTAVYYGATYFVGFRLSDYDYWGQGTQVTVSS | low polyreactivity
39 | QVQLVESGGGLVQAGGSLRLSCAASGFTFKYYAMGWYRQAPGKERELVATITRSGGNTYYADSVKGRFTISRDNAKNTVYLQMNSLKPEDTAVYYCNKGVRRSVYSRYDYWGQGTQVTVSS | high polyreactivity
40 | QVQLVESGGGLVQAGGSLRLSCAASGFTFLFNAMGWYRQAPGKERELVADITWSGGSTYYADSVKGRFTISRDNAKNTVYLQMNSLKPEDTAVYYCAASDDWSTPIYYYSVFDYDYWGQGTQVTVSS | high polyreactivity
41 | QVQLVESGGGLVQAGGSLRLSCAASGFTFLGYAMGWYRKAPGKERELDASITYGGDSTYYADSVKARFTISRDNAKNTFYLEMISLKPEDTAVYYCNARPSYWWGGRLYGYWGQGSQVTVSS | high polyreactivity
42 | QVQLVESGGGLVQAGGSLRLSCAASGFTFLKYAMGWYRQAPGKERELVARITSGGRTYYADSVKGRFTISRDNAKNTVYLQMNSLKPEDTAVYYCNAVKSYASLYAGFYYWGQGTQVTVSS | high polyreactivity
43 | QVQLVESGGGLVQAGGSLRLSCAASGFTFLVYAMGWYRQAPGKERELVAAISRRGGSTYYADSVKGRFTISRDNAKNTVYLQINSLKPEDTAVYYCNVDRYYRIGYYRLTMGYWGQGTQVTVSS | high polyreactivity
